The target of experiment [1] is T1, murine FAP recombinant protein (murine, UniProt P97321 26-761).
T1 construct: The protein was biotinylated for bio-layer interferometry; also called extracellular domain of murine FAP with N-terminal His6-tag
T1 sequence: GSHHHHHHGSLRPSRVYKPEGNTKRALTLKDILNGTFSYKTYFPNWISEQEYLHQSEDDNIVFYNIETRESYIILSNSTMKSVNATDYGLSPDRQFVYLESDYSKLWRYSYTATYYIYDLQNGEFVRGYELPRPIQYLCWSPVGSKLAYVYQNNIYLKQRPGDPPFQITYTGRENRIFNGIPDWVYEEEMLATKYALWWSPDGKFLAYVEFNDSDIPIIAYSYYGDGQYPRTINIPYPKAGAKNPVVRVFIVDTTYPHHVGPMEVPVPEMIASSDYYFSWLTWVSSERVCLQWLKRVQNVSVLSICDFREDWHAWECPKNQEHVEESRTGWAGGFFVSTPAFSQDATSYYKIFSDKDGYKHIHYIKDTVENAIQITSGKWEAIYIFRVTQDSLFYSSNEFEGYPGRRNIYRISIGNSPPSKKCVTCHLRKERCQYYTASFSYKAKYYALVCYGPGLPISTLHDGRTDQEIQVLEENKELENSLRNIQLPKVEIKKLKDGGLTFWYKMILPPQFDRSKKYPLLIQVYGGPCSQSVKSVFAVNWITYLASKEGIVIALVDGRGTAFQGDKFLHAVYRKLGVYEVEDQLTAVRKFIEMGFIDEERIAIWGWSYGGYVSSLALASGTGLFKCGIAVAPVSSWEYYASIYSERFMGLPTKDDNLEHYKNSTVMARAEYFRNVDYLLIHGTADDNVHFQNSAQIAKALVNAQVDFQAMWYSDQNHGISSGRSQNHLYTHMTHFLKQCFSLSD
As to the kind of experiment: bio-layer interferometry (Octet RED96), biotinylated murine FAP on streptavidin sensor, kinetic titration, 25 °C. The protocol: (§1) The kinetic parameters of antigen binding by purified VHHs were determined via bio-layer interferometry with an Octet RED96 instrument (ForteBio). The assay was performed at 25° C. with shaking at 1000 rpm. Streptavidin coated SA sensors were equilibrated in assay buffer (HBS supplemented with 0.5% BSA, 0.1% Tween), before loading for 5 min with the biotinylated FAP recombinant protein at a concentration of 5 μg/ml. His₆-tagged VHHs were analyzed in a threefold serial dilution from 30 nM to 0.4 nM in assay buffer (except for VHH B3 binding murine FAP recombinant protein, for which a fivefold serial dilution from 1000 nM to 1.6 nM was employed). First the baseline was measured for 180 s in assay buffer, followed by 5 subsequent association phases of 180 s with the VHH preparations in increasing order of concentration, with 75 s intermediate dissociation phases in assay buffer in between, and a final dissociation phase in assay buffer of 30 min. In every assay a reference sensor loaded with FAP recombinant protein was included that was incubated in assay buffer during the association phases.
(§2) Binding curves were exported and analyzed using the BIAevaluation analysis software (GE Healthcare). First the y-axes of the different curves were aligned to the median of the last 5 s of the baseline measurement. Subsequently, the sensorgram of the reference sensor was subtracted from all other sensorgrams. The resulting binding curve was fitted using a general fit with the ‘kinetic titration with drift’ binding model (1:1 (antigen:analyte) model; Karlsson, R. et al (2006), Analyzing a kinetic titration series using affinity biosensors. Analytical Biochemistry 349: 136-147), with Rmax fitted global, RI local and drift set to 0.
(§3) Table 7 gives an overview of the kinetic parameters of antigen binding for His₆-tagged VHHs B1, B2, B3 and B4 (SEQ ID NO: 21-24), as determined by bio-layer interferometry with biotinylated human or murine FAP recombinant protein that was loaded on the sensor.
For orientation: In BLI a coated tip is dipped into the sample, and binding shifts an interference pattern.

For experiment [2], the target named is T2, murine FAP expressed on cells (murine, UniProt P97321 1-761).
T2 construct: also called murine FAP cell surface protein
T2 sequence: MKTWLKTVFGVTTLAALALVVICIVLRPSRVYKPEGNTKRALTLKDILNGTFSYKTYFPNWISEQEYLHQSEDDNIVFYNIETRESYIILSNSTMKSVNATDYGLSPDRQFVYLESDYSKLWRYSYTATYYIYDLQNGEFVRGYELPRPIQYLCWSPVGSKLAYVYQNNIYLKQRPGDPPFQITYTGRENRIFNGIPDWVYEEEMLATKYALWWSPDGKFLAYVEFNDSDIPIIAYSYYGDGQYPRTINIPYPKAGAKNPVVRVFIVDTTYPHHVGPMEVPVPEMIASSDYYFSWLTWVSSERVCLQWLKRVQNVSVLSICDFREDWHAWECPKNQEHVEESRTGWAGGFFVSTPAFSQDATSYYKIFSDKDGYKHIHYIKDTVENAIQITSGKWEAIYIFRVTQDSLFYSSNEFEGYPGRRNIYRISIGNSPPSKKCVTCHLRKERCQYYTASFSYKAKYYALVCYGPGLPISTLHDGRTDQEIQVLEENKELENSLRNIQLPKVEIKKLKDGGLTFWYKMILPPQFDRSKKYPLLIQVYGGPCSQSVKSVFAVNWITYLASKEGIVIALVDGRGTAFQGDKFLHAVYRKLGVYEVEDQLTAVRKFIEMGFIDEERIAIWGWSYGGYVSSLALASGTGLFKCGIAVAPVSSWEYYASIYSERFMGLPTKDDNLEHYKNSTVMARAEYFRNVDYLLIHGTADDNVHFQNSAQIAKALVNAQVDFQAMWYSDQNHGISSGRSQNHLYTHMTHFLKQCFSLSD
As to the kind of experiment: saturation binding of 99mTc-labelled VHH on murine FAP-expressing HEK-293 cells (mean ± SD, n = 3). The method, then: (§4) Next, we describe the in vitro and in vivo human and murine FAP binding potential of different VHHs after radiolabelling with the diagnostic radioisotope ^99mTc. […] His₆-tagged human/murine FAP-targeting VHHs were radiolabelled with the diagnostic radioisotope ^99mTc, according to the radiochemical procedure described in Example 3.
(§5) Next, the different cell lines were incubated with serial dilutions with concentrations ranging from 0 to 300 nM of the different ^99mTc-labelled His₆-tagged VHHs. A 100-fold excess of the corresponding unlabeled VHH was added in parallel to saturate the human or murine FAP proteins on the cancer cell surface, to assess non-specific binding. The resulting EC50 values for each of the VHHs are depicted in Table 8. […] We confirmed that ^99mTc-labeled VHH B4 only binds murine FAP cell surface protein, while VHH B3 only binds human FAP cell surface molecules in vitro.

In experiment [3] the target is T3, human FAP expressed on cells (human, UniProt Q12884 1-760).
T3 construct: also called human FAP cell surface protein; human FAP receptor
T3 sequence: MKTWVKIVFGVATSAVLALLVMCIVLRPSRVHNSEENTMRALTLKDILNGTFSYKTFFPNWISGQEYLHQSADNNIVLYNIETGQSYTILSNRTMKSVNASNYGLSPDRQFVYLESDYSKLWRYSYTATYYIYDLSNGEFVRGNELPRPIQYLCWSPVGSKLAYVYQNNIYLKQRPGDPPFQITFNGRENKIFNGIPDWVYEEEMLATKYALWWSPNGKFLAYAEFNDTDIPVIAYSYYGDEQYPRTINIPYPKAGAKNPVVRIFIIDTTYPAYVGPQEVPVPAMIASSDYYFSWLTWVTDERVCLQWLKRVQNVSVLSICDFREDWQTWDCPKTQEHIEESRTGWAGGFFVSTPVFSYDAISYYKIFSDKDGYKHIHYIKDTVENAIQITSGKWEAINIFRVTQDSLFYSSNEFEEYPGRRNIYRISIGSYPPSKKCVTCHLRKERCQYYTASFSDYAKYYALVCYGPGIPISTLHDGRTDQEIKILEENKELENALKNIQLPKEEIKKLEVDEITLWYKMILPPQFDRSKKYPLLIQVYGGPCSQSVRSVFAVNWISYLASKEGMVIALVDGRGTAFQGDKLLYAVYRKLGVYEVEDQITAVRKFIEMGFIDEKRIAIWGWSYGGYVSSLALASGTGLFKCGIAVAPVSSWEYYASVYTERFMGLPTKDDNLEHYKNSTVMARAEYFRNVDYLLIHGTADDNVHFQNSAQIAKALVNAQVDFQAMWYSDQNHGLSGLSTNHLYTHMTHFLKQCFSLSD
As to the kind of experiment: saturation binding of 99mTc-labelled VHH on human FAP-expressing GM05389 cells (mean ± SD, n = 3). The protocol: as §4, §5

The target in experiment [4] is T3, human FAP expressed on cells. As to the kind of experiment: saturation binding of 99mTc-labelled VHH on human FAP-expressing HEK-293 cells (mean ± SD, n = 3). The method, then:
as §4, §5

The target in experiment [5] is T4, human FAP recombinant protein (human, UniProt Q12884 26-760).
T4 construct: The protein was biotinylated with sulfo-NHS-SS-biotin for bio-layer interferometry; also called extracellular domain of human FAP with N-terminal His6-tag
T4 sequence: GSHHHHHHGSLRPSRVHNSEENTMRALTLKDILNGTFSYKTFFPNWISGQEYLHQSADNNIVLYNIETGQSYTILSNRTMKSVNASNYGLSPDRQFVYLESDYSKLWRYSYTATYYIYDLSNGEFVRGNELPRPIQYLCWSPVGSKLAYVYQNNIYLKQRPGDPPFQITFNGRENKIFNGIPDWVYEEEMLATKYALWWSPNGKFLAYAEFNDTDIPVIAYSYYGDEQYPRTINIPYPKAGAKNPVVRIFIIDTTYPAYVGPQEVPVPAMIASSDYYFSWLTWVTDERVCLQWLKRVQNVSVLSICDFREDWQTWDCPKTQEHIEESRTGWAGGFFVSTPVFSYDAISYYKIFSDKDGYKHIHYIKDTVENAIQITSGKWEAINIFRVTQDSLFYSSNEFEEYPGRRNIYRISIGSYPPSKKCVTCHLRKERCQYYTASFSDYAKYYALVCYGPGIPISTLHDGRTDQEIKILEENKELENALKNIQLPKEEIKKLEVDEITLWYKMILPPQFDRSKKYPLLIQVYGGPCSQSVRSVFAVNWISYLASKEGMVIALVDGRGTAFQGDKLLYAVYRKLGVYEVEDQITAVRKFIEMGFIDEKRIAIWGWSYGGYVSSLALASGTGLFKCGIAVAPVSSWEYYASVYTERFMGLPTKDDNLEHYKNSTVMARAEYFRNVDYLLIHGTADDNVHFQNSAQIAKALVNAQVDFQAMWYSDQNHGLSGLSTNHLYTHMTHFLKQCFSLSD
As to the kind of experiment: bio-layer interferometry (Octet RED96), biotinylated human FAP on streptavidin sensor, kinetic titration, 25 °C. The protocol: as §1, §2, §3

The term Kd denotes the equilibrium constant for the complex coming apart. The term koff denotes the first-order rate constant of dissociation. As a reminder, the kon is the rate constant with which the complex forms. Usually EC50 stands for the concentration at which the effect is half-maximal. A higher EC50 goes with weaker potency.

B1: His6-tagged VHH B4 (VHH)
VHH: DVQLVESGGGLVQVGGSLRLSCVASGFTFSSYYMSWVRQAPGKGLEWVASIYADGDMTYYADSVRGRFTISRDNAKNTLYLQMNSLKSEDTAVYYCAKDPLPPYHVNQGTQVTVSS
notes: Purified, unlabelled; used in bio-layer interferometry; also called B4 with His6-tag
Turning to B1, in experiment [1], the Kd stood at 0.512 nM, the koff came to 0.00056 s⁻¹ and the kon was determined as 1.1e+06 M⁻¹ s⁻¹.

B2: 99mTc-labeled His6-tagged VHH B1 (VHH)
VHH: DVQLVESGGGLVQPGGSLRLSCVASGRLSSSNSMAWYRQVPGKRRELVAGITGGGETNYADFVGGRFTISRDNAKNGLYLQLNGLKPEDTAAYYCNFWPPLINYWGQGTQVTVSS
modifications: [99mTc(H2O)3(CO)3] complexed at the His6-tag
notes: also called 99mTc-B1
Take B2: the EC50 in experiment [2] is 5.8 nM; in experiment [3] it was 0.5 nM; in experiment [4], 0.6 nM.

B3: His6-tagged VHH B2 (VHH)
VHH: DVQLVESGGGLVQAGGSLRLSCAVSGSISSANSMGWYRQAPGKQRDVVAGLTTGGRSHYADSVKGRFTISRDNAKNTVYLQMNSLKAEDTAVYYCNLWPPVQGYWGQGTQVTVSS
notes: Purified, unlabelled; used in bio-layer interferometry; also called B2 with His6-tag
For the molecule B3, in experiment [1], the Kd is 24.3 nM, the koff came to 0.0082 s⁻¹ and the kon was 340000 M⁻¹ s⁻¹. In experiment [5], the Kd turned out to be 0.0744 nM, the koff is 3.1e-05 s⁻¹ and the kon came out at 420000 M⁻¹ s⁻¹.

B4: 99mTc-labeled His6-tagged VHH B2 (VHH)
VHH: B3 VHH
modifications: [99mTc(H2O)3(CO)3] complexed at the His6-tag
notes: also called 99mTc-B2
For B4, the EC50 in experiment [2] stood at 139 nM; in experiment [3], 3.2 nM; in experiment [4] it was 13 nM.

(Values after US20230381350A1 (PRECIRIX N V, published 2023).)
